Patent US20240124575A1 (SIMCERE ZAIMING PHARMACEUTICAL, published 2024)
Like-named read-outs stand apart in the source and are kept apart here.

Tests used:
monkey CD33 protein [1] = target: T1, monkey CD33 protein (monkey); assay: ELISA, coated monkey CD33, antibody 100 nM
T1 construct: The printed catalogue numbers for murine and monkey CD33 may be interchanged; also called monkey CD33-His protein

monkey CD33 protein [2] = target: T1, monkey CD33 protein; assay: ELISA, coated monkey CD33, antibody 0.1 nM
[3] = target: T2, monkey CD33 on HEK293T-monkey CD33 cells (monkey); assay: FACS on HEK293T-monkey CD33 cells
T2 construct: whole, on cells

[4] = target: T2, monkey CD33 on HEK293T-monkey CD33 cells; assay: FACS on HEK293T-monkey CD33 cells; remark: listed apart in the source
monkey CD33 protein [5] = target: T1, monkey CD33 protein; assay: ELISA, coated monkey CD33, antibody 0.001 nM
monkey CD33 protein [6] = target: T1, monkey CD33 protein; assay: ELISA, coated monkey CD33, antibody 0.01 nM
monkey CD33 protein [7] = target: T1, monkey CD33 protein; assay: SPR (Biacore), antibody captured on Protein A chip, monkey CD33 protein as analyte
Procedure: (§1) The sample and running buffer was HBS-EP+ (10 mM HEPES, 150 mM NaCl, 3 mM EDTA, 0.05% surfactant P20) (GE Healthcare; BR-1006-69). The flow cell was set at 25° C. The sample block was set at 16° C. Both were pretreated with the running buffer. In each cycle, first, the antibody to be tested was captured using the Protein A chip, and then a single concentration of CD33 antigen protein was injected. The association and dissociation processes of the antibody with the antigen protein were recorded, and finally, the chip was regenerated using Glycine pH 1.5 (GE Healthcare; BR-1003-54). The association was determined by injecting different concentrations of recombinant human CD33-his in the solution and maintaining for 240 s, wherein the flow rate was 30 μL/min, and the protein was diluted in a 1:1 dilution ratio from 200 nM to obtain 5 concentrations in total. The dissociation phase was monitored for up to 600 s and triggered by switching from the sample solution to the running buffer. The surface was regenerated by washing with 10 mM glycine solution (pH 1.5) at a flow rate of 30 μL/min for 30 s. The difference in bulk refractive index was corrected by subtracting the responses obtained from the […]. Blank injections were also subtracted (=double reference). To calculate the apparent KD and other kinetic parameters, the Langmuir 1:1 model was used.
(§2) The assay on affinity of VHH-Fc antibodies for monkey CD33 protein (Sino Biological, Cat. No. 50712-M08H) was performed according to the method in Example 7.1.

monkey CD33 protein [8] = target: T1, monkey CD33 protein; assay: ELISA, coated monkey CD33, antibody 1 nM
monkey CD33 protein [9] = target: T1, monkey CD33 protein; assay: ELISA, coated monkey CD33, antibody 10 nM
monkey CD33 protein [10] = target: T1, monkey CD33 protein; assay: ELISA, coated monkey CD33, antibody 0.1 nM; remark: listed apart in the source
monkey CD33 protein [11] = target: T1, monkey CD33 protein; assay: ELISA, coated monkey CD33, antibody 0.0001 nM
monkey CD33 protein [12] = target: T1, monkey CD33 protein; assay: ELISA, coated monkey CD33, antibody 10 nM; remark: listed apart in the source
human CD33-His [13] = target: T3, human CD33-His (human, UniProt P20138 18-259); assay: SPR (Biacore), antibody captured on Protein A chip, human CD33-his as analyte
T3 construct: range 18-259; Bought protein; also called human CD33-his protein; hCD33-his; not shown: His tag
T3 sequence (P20138 18-259 limits assumed): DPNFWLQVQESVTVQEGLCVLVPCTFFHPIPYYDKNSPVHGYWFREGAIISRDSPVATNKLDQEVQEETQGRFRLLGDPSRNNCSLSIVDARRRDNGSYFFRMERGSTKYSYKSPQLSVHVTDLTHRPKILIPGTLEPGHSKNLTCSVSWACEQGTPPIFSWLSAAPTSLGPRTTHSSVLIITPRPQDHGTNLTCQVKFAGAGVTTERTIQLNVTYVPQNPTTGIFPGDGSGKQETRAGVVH
Procedure: as §1

monkey CD33 protein [14] = target: T1, monkey CD33 protein; assay: ELISA, coated monkey CD33, antibody 100 nM; remark: listed apart in the source
monkey CD33 protein [15] = target: T1, monkey CD33 protein; assay: SPR (Biacore), antibody captured on Protein A chip, monkey CD33 protein as analyte; remark: listed apart in the source
Procedure: as §1, §2

monkey CD33 protein [16] = target: T1, monkey CD33 protein; assay: ELISA, coated monkey CD33, antibody 1 nM; remark: listed apart in the source
monkey CD33 protein [17] = target: T1, monkey CD33 protein; assay: ELISA, coated monkey CD33, antibody 0.01 nM; remark: listed apart in the source
monkey CD33 protein [18] = target: T1, monkey CD33 protein; assay: ELISA, coated monkey CD33, antibody 0.001 nM; remark: listed apart in the source
monkey CD33 protein [19] = target: T1, monkey CD33 protein; assay: ELISA, coated monkey CD33, antibody 0.0001 nM; remark: listed apart in the source
human CD33-His [20] = target: T3, human CD33-His; assay: SPR (Biacore), antibody captured on Protein A chip, human CD33-his as analyte; remark: listed apart in the source
Procedure: as §1

OD450 (monkey CD33 protein [1]): 3.4 OD450 | OD450 (monkey CD33 protein [2]): 0.99 OD450 | EC50 [3]: 4.8 nM | Max MFI [3]: 7880 MFI | EC50 [4]: 5.7 nM | Max MFI [4]: 3590 MFI | OD450 (monkey CD33 protein [5]): 0.06 OD450 | OD450 (monkey CD33 protein [6]): 0.29 OD450 | Kd (monkey CD33 protein [7]): 0.494 nM | koff (monkey CD33 protein [7]): 0.000497 s⁻¹ | kon (monkey CD33 protein [7]): 1.01e+06 M⁻¹ s⁻¹ | OD450 (monkey CD33 protein [8]): 2.73 OD450 | OD450 (monkey CD33 protein [9]): 3.23 OD450 | OD450 (monkey CD33 protein [10]): 1.15 OD450 | OD450 (monkey CD33 protein [11]): 0.06 OD450 | OD450 (monkey CD33 protein [12]): 3.09 OD450 | Kd (human CD33-His [13]): 0.155 nM | koff (human CD33-His [13]): 7.44e-05 s⁻¹ | kon (human CD33-His [13]): 479000 M⁻¹ s⁻¹ | OD450 (monkey CD33 protein [14]): 3.06 OD450 | Kd (monkey CD33 protein [15]): 0.492 nM | koff (monkey CD33 protein [15]): 0.000632 s⁻¹ | kon (monkey CD33 protein [15]): 1.29e+06 M⁻¹ s⁻¹ | OD450 (monkey CD33 protein [16]): 2.52 OD450 | OD450 (monkey CD33 protein [17]): 0.15 OD450 | OD450 (monkey CD33 protein [18]): 0.07 OD450 | OD450 (monkey CD33 protein [19]): 0.04 OD450 | Kd (human CD33-His [20]): 0.157 nM | koff (human CD33-His [20]): 4.08e-05 s⁻¹ | kon (human CD33-His [20]): 260000 M⁻¹ s⁻¹
B1: C33B904 (antibody, human IgG1, kappa, V domains shown)
VH: EVQLVESGGGLVQPGRSLRLSCAASGFTFDDYAMHWVRQAPGKGLEWVSGIGWSGGSIVYADSVKGRFTISRDNAKNSLYLQMNSLRAEDTALYYCAKDSPYGDFFDYWGQGTLVTVSS
VL: DIVMTQSPDSLAVSLGERATINCKSSQTVFYSSNNKNYLAWYQQKPGQPPKLLISWASTRKSGVPDRFSGSGSGTDFTLTVSSLQAEDVAVYYCQHYYSTPYTFGQGTKLEIKR
notes: Control antibody, intact human IgG1; variable regions from US20190382481A1; also called C33B904 hIgG1; C331B904
